Experimental data taken from the supplement of paper PMC9732359.
± gives the uncertainty stated by the source.

Assay: protein stability index of a GFP-peptide fusion (yeast GPS) (PSI 1-4); higher = more stable; sorted into four equal gates, so the index is relative within each strain
Outline: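 Plasmids isolated from each sorting gate were PCR-amplified and Illumina-sequenced, and barcodes assigned the reads to strains. The gates, four of equal size, were set by GFP/Cherry fluorescence ratio on mid-log cultures in leucine-free medium. These cultures were yeast carrying a pooled library of tiled 17-residue yeast protein peptides fused downstream of GFP on a plasmid that also expresses Cherry. The protein stability index is the sum of every gate's read frequency times its gate number.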

Row | Sequence | protein stability index (doa10∆) | protein stability index (pdr5∆) | protein stability index (san1∆) | protein stability index (ubr1∆)
1 | LTLYLFQDYLTQQAVNL [IRR1] | 2.15 ± 0.095 | 1.91 ± 0.067 | 2.06 ± 0.15 | 2.17 ± 0.099
2 | ERLTNSLMMNGRNNGKK [RPS5] | 2.98 ± 0.099 | 3.02 ± 0.088 | 2.54 ± 0.071 | 2.62 ± 0.09
3 | LNHRNKNQHRAASWYGS [RMP1] | 2.86 ± 0.092 | 3.31 ± 0.07 | 3.17 ± 0.056 | 3.06 ± 0.044
4 | PKKEYDDDAVRREVQIQ [NSL1] | 1.4 ± 0.18 | 2.11 ± 0.25 | 1.36 ± 0.29 | 2.38 ± 0.21
5 | ELTDNMSDFVPIDAGLN [MCD1] | 3.12 ± 0.11 | 2.99 ± 0.1 | 2.74 ± 0.081 | 3.21 ± 0.12
6 | NAIIEANLGKYGILSID [RPL7A] | 2.87 ± 0.17 | 2.97 ± 0.14 | 2.84 ± 0.094 | 2.89 ± 0.15
7 | MAKVHGSLARAGKVKSQ [RPS30A] | 2.38 ± 0.067 | 2.7 ± 0.068 | 2.49 ± 0.066 | 2.44 ± 0.054
8 | IDKFIMVVQKYKLSTVV [GRR1] | 1.73 ± 0.068 | 1.9 ± 0.081 | 1.58 ± 0.11 | 1.86 ± 0.082
9 | MLLEEQLEYKRGEIREI [MED7] |  | 2.92 ± 0.28 | 2.69 ± 0.29 | 
10 | LPSEDSRAQILQIHSRK [RPT5] | 2.21 ± 0.072 | 2.39 ± 0.049 | 2.55 ± 0.064 | 2.89 ± 0.04
11 | QRETYDSNESDDDVTPS [YLR335W/NUP2] | 1.99 ± 0.1 | 2.43 ± 0.2 | 2.37 ± 0.15 | 2.65 ± 0.18
12 | RLELAGQLISLLFEDLF [RET1] | 2.65 ± 0.092 | 2.9 ± 0.12 | 2.67 ± 0.082 | 2.91 ± 0.075
13 | MILKLVCQVTKFGLLLQ [ECM29] | 2.12 ± 0.066 | 2.28 ± 0.078 | 2.46 ± 0.072 | 1.61 ± 0.063
14 | SPLLESDSIEKIVEIDR [PUP2] | 3.48 ± 0.11 | 3.08 ± 0.1 | 2.59 ± 0.15 | 3.49 ± 0.14
15 | VRDTSPHGISVFLSNLV [BRR2] | 1.35 ± 0.1 | 1.54 ± 0.077 | 2.55 ± 0.078 | 2.34 ± 0.049
16 | MQDPDGIDINTKIFNSV [YCG1] | 2.93 ± 0.21 | 3.04 ± 0.12 | 2.54 ± 0.17 | 2.89 ± 0.068
17 | KCLVEKSICFENCLNND [SWI1] | 1.81 ± 0.097 | 2.67 ± 0.057 | 2.69 ± 0.064 | 2.61 ± 0.078
18 | YILSLVSIKDSTGCVVG [YMR129W/POM152] | 1.41 ± 0.041 | 1.47 ± 0.047 | 1.92 ± 0.062 | 1.48 ± 0.034
19 | DASTPLRSTENGIVDQV [RPB2] | 2.94 ± 0.12 | 3.33 ± 0.1 | 3.34 ± 0.06 | 3.47 ± 0.092
20 | QTFGVDILAKLFSLEKP [SWI1] | 2.81 ± 0.063 | 2.52 ± 0.061 | 2.58 ± 0.058 | 2.51 ± 0.046
21 | PKGVILYGAPGTGKTLL [RPT2] | 3.67 ± 0.27 |  |  | 3.13 ± 0.22
22 | PGNNIPYMNHKNTSSMD [GAL11] |  | 2.11 ± 0.14 | 2.16 ± 0.21 | 
23 | MKDKEINIQKYNNNTIR [CSI1] | 2.42 ± 0.22 | 2.4 ± 0.15 |  | 2.52 ± 0.1
24 | LSFVDIVLSKAASALDE [SIR4] | 1.84 ± 0.11 | 2.8 ± 0.071 | 2.59 ± 0.14 | 2.21 ± 0.054
25 | STVIEEFTLFMDIAERI [YGL172W/NUP49] | 2.37 ± 0.053 | 2.71 ± 0.053 | 2.47 ± 0.049 | 2.75 ± 0.038
26 | DLQRLKPLGLDRYGNRY [ITC1] |  |  |  | 3.05 ± 0.13
27 | QYTKDEQFYTKDIIDPK [RPN2] | 3.53 ± 0.13 | 3.24 ± 0.094 | 2.78 ± 0.15 | 3.29 ± 0.065
28 | QPVNFNRSWDHAYNITF [RPO31] | 2.13 ± 0.12 | 2.37 ± 0.055 | 2.39 ± 0.12 | 2.45 ± 0.047
